Among the data in PMC12861478, “Amino acid transporter CsBAT links GABA accumulation to flavonoid metabolism in Camellia sinensis” (Horticulture Research, 2025) are Km values, retold here.

What all share (experiment): cells, lysate or membranes
Substrate in series [1]: N[C@@H](CCC(=O)O)C(=O)O
Conditions: transport; nitrogen-starved cells in nitrogen-free YNB.

Substrate in series [2]: NCCCC(=O)O
Conditions: transport; nitrogen-starved cells in nitrogen-free YNB; 0.09375–8 mM GABA; H+-dependent.

Substrate in series [3]: CCNC(=O)CC[C@H](N)C(=O)O
Conditions: transport; nitrogen-starved cells in nitrogen-free YNB.

Substrate in series [4]: NC(=O)CC[C@H](N)C(=O)O
Conditions: transport; nitrogen-starved cells in nitrogen-free YNB.

B1: CsBAT (Camellia sinensis) (protein)
chain: MGWHSHSHVQNGDSSLDTGHTRLHELGYKQELKRDLSVVSNFAFSFSIISVLTGITTLYNTGLNYGGPVVLVYGWLIAGVFTMIVGLSMAEICSSYPTSGGLYYWSAKLAGPSWAPFASWLTGWFNIVGQWAVTTSVDFSLAQLIQVIILLSTGGKNGGGYQASKYVVIGIHGGILLLHAIINSLPITWLSLFGQFAALWNLIGVFVLMILIPTVAKEKASAKFVFTFFNTDNGDGINSKVYIFVLGLLMSQYTLTGYDASAHMTEETKSADKNGPKGIISAIGISVIVGWGYLLGVTFAVTKIPNLLSENNDAGGYAIAEVFYLAFKNRYGNGIGGIICLGVVAVAIFFCGMSSITSNSRMAYAFSRDGAMPLSSVWHKVNKHEVPLNAVWLSAIIAFCMALTSLGSIVAFQAMVSIATIGLYIAYALPIFFRVTLARKSFTPGPFNLGRYGVLVGWIAVLWVATISVLFSLPVSYPITDQTLNYTPVAVGGLLILTVASWIFSARHWFKGPITNIDDVL
As to B1, the Km is 580 ± 50 µM in series [1], 290 ± 20 µM in series [2], 360 ± 30 µM in series [3] and 400 ± 40 µM in series [4].

A word on the Km: it is the concentration of substrate that gives half-maximal velocity.
